Source: patent US20240390418A1 (MINERVA BIOTECHNOLOGIES, published 2024)
Values belong to the binder of their own block, whether it stands above or below them.

B2: N-10 peptide (peptide)
peptide: QFNQYKTEAASRYNLTISDVSVSDVPFPFSAQSGA
notes: also called PSMGFR N-10; PSMGFR minus 10 amino acids from the N-terminus

Tests used:
[1] = target: B2; assay: peptide ELISA
[2] = target: T1, PSMGFR peptide; assay: ELISA, peptide on plate (FIG. 65)
T1 construct: also called MUC1* peptide
T1 peptide: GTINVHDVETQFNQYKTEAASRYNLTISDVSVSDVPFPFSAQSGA

[3] = target: T2, NME7AB (Homo sapiens (Human), UniProt Q9Y5B8 92-376); assay: ELISA, peptide on plate (FIG. 2A-2D)
T2 construct: NME7A in the text appears to be NME7AB; also called NM23-H7; NME7A
T2 sequence: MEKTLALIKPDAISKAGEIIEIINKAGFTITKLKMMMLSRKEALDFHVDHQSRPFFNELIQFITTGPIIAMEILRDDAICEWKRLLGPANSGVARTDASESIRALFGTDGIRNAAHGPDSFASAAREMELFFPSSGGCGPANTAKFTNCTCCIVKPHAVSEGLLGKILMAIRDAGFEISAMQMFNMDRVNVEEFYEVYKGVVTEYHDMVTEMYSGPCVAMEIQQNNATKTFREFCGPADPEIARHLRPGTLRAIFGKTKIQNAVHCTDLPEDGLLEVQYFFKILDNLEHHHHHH

[4] = target: T3, N+9/C-9 peptide; assay: ELISA, peptide on plate (FIG. 64)
T3 peptide: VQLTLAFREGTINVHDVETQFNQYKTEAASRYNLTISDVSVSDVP

[5] = target: T1, PSMGFR peptide; assay: peptide ELISA, told in tissue legend
[6] = target: B2; assay: peptide ELISA, told in tissue legend
[7] = target: T4, MUC1* expressed on HCT-116 cells transfected with MUC1* (extra cellular domain is just the PSMGFR sequence) (Homo sapiens (Human), UniProt P15941 1110-1255); assay: denaturing Western blot of cell lysates (FIG. 72)
T4 construct: In Western blot rows the same protein stood denatured in cell lysate; also called HCT-MUC1*; HCT-FLR
T4 sequence: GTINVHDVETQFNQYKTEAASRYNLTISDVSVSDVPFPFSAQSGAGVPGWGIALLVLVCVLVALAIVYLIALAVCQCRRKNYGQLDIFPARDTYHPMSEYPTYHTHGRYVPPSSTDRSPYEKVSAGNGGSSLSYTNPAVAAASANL
Experimental: Antibodies were tested to determine whether they recognize a linear or a conformational epitope. Only antibodies that recognize a linear epitope work in Western blots when using denaturing gels. […] The antibodies tested for comparison are MNC2 and MNE6, which were known to only recognize a conformational epitope, SDIX which is a polyclonal antibody raised against PSMGFR and VU4H5, which is a commercially available monoclonal antibody that recognizes the tandem repeats of full-length MUC1 (FIG. 71A-71D). […] The SDIX polyclonal antibody recognizes HCT-MUC1* but not full-length MUC1 and VU4H5 only recognizes full-length MUC1. These same antibodies were also tested for their ability to work in Western blots of two breast cancer cell lines 1500, aka Zr-75-1, and T47D cells and show the same binding pattern (FIG. 71E-71H).
(§1) Antibodies that were raised against the PSMGFR peptide were tested the same way in Western blots (FIG. 72A-72P). […] Antibodies that were raised against the N+20/C-27 peptide were tested the same way in Western blots (FIG. 73A-73J). […] Antibodies 1E4 and 45C11 may recognize a conformational epitope. Antibodies that were raised against the N+9/C-9 peptide were tested the same way in Western blots (FIG. 74A-74H). […] These antibodies may recognize a conformational epitope.

[8] = target: T5, C-10 peptide; assay: ELISA, peptide on plate (FIG. 201)
T5 construct: also called PSMGFR C-10; PSMGFR minus 10 amino acids from the C-terminus
T5 peptide: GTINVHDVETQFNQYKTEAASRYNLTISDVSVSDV

[9] = target: T1, PSMGFR peptide; assay: ELISA, peptide on plate (FIG. 201A)
Experimental: (§2) FIG. 201A-201C show graphs of ELISA assays to determine the binding of another set of antibodies generated by immunizing animals with the PSMGFR peptide. […] F3, B12, B2, B7, B9, 8C7F3 and H11 all bound to the PSMGFR peptide and to the N-10 peptide.
(§3) This same ELISA assay was performed on the antibodies of the invention (FIGS. 64-66 and FIG. 201). Note that only 20A10 exactly matches the binding profile of MNC2 and MNE6. 25E6, 28F9 and 18G12 are all able to bind to the N-10 peptide. 18B4 is the only antibody raised against the PSMGFR peptide that requires the 10 most N-terminal amino acids of the peptide. The color of the bars for each antibody in the ELISA graph are color coded to match the deductive cognate sequence, or a portion thereof, of that antibody. In addition, another set of antibodies was assayed by ELISA (FIG. 201). Of this set, B12, B2, B7, B9, 8C7F3, and H11 bound to the PSMGFR peptide, bound to the N-10 peptide, but not to the C-10 peptide (FIG. 201). Although these antibodies were raised against the N+20/C-27 peptide, all but one, 45C11, still bind to the PSMGFR peptide, albeit at the N-terminal portion of PSMGFR.

[10] = target: B2; assay: ELISA, peptide on plate (FIG. 201B)
Experimental: as §2, §3

[11] = target: T1, PSMGFR peptide; assay: peptide ELISA
[12] = target: T4, MUC1* expressed on HCT-116 cells …; assay: denaturing Western blot of cell lysates, longer exposure (FIG. 72G, 72H, 72O, 72P)
Description: All these antibodies were raised against the PSMGFR peptide and bind to the PSMGFR peptide. […] FIG. 72A and FIG. 72I show 20A10. FIG. 72B and FIG. 72J show 25E6. FIG. 72C and FIG. 72K show 18B4. FIG. 72D and FIG. 72L show 18G12. FIG. 72E and FIG. 72M show 28F9. FIG. 72F and FIG. 72N show 3C2B1. FIG. 72G and FIG. 72O show 5C6F3. FIG. 72H and FIG. 72P show 5C6F3 wherein the blot has been exposed for a longer time period to render more visible the MUC1* specific bands.
as §1

[13] = target: T1, PSMGFR peptide; assay: ELISA, peptide on plate (FIG. 2B)
Experimental: FIGS. 2A-2I show results of ELISA assays. MUC1* peptides PSMGFR, PSMGFR minus 10 amino acids from the N-terminus aka N-10, or PSMGFR minus 10 amino acids from the C-terminus, aka C-10 are immobilized on the plate and the following are assayed for binding: NME7-AB (FIG. 2A), MNC2 monoclonal antibody (FIG. 2B), MNE6 monoclonal antibody (FIG. 2C), or dimeric NME1 (FIG. 2D). […] MUC1* peptides PSMGFR minus 10 amino acids from the N-terminus aka N-10, or PSMGFR minus 10 amino acids from the C-terminus, aka C-10, are immobilized on the plate and the following are assayed for binding: MNC3 (FIG. 2E) and MNC8 (FIG. 2F).

[14] = target: T6, N+20/C-27 peptide; assay: ELISA, peptide on plate (FIG. 63)
T6 peptide: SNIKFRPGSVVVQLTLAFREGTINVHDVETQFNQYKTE
Experimental: ELISA assays were performed to determine if, in addition to recognizing their immunizing peptide, they recognized PSMGFR, N-10 or C-10. In addition, they were tested for their ability to bind to N+20/C-27, N+9/C-9. We first did the ELISA assay on our set of reference antibodies, MNC2, MNE6, which we know are cancer-specific plus MNC3, which we know recognizes stem cells and progenitor cells (FIG. 63A-63B). None of the reference antibodies bound to the N+20/C-27 peptide. MNC2 and MNE6 cannot bind to PSMGFR peptides with 27, 10 or 9 C-terminal deletions, however, MNC3 binds to C-10 and to N+9/C-9 peptides.

[15] = target: T5, C-10 peptide; assay: ELISA, peptide on plate (FIG. 64)
[16] = target: B2; assay: ELISA, peptide on plate (FIG. 2B-2C)
[17] = target: T4, MUC1* expressed on HCT-116 cells …; assay: flow cytometry, HCT-116 cells transfected with MUC1* (FIG. 35B)

Binder: B2
binding result [3]: binds

B3: monoclonal antibody 25E6 (antibody, V domains shown)
VH: EVQLVESGGDLVKPGGSLKLSCAASGFTFSSYGMSWVRQTPDKRLEWVATISNGGRHTFYPDSVKGRFTISRDNAKNTLYLQMSSLKSEDTAMYLCVRQTGTEGWFAYWGQGTLVTVSA
VL: not shown
notes: Raised against PSMGFR; also called MN25E6; anti-PSMGFR antibody 25E6
binding result [4]: binds
binding result [5]: binds
binding result [6]: binds
binding result [7]: binds

B5: monoclonal antibody 5C6F3 (antibody, V domains shown)
VH: EVMLVESGGGLVKPGGSLKLSCAASGFTFSTYAMSWVRQTPEKRLEWVAAISNGGGYTYYPDSLKGRFTISRDNAKNTLYLQMSSLRSEDTATYYCARRYYDHYFDYWGQGTALTVSS
VL: DVLMTQTPLSLPVSLGDQASISCRSSQTIVHSNGNTYLEWYLQKPGQSPKLLIYKVSNRFSGVPDRFSGSGSGTDFTLKISRVEAEDLGVYYCFQDSHVPLTFGAGTKLELK
notes: Raised against PSMGFR; also called MN5C6F3; anti-PSMGFR antibody 5C6F3
binding result [11]: binds
binding result [1]: binds
binding result [12]: binds

B6: mouse monoclonal antibody MNC2 (antibody, V domains shown)
VH: EVQLEESGGGLVKPGGSLKLSCAASGFTFSGYAMSWVRQTPEKRLEWVATISSGGTYIYYPDSVKGRFTISRDNAKNTLYLQMSSLRSEDTAMYYCARLGGDNYYEYFDVWGAGTTVTVSS
VL: DIVITQSTASLGVSLGQRATISCRASKSVSTSGYSYMHWYQQRPGQPPKLLIYLASNLESGVPARFSGSGSGTDFTLNIHPVEEEDAATYYCQHSRELPFTFGGGTKLEIKR
notes: Mouse monoclonal raised against the PSMGFR peptide; also called Min-C2; MNC2-scFv (label in some tissue legends)
binding result [13]: binds
binding result [14]: no binding
binding result [15]: no binding
binding result [4]: no binding
binding result [16]: binds
binding result [17]: binds

Now from value to binder:

binding result [1]: no binding
binding result [2]: no binding
B1: monoclonal antibody 45C11 (antibody, V domains shown)
VH: EVQLQQSGADLVKPGASVKLSCTASGFNIKDTFMHWVKQRPEQGLEWIGRIDPANGNTKYDPKFQGKATITADTSSNTAYLQLSSLTSEDTAVYYCAKPYGNYGYYYALDYWGQGTSVTVSS
VL: DVQITQSPSYLAASPGETITINCRASKSISKYLAWYQEKPGKTNKLLIYSGSTLQSGIPSRFSGSGSGTDFTLTISSLEPEDFAMYYCQQHNEFPWTFGGGTKLEIK
notes: Raised against the N+20/C-27 peptide; also called N+20/C-27 antibody 45C11

binding result [8]: no binding
binding result [9]: binds
binding result [10]: binds
B4: monoclonal antibody H11 (antibody, V domains shown)
VH: EVVLVESGGGLVEPGGSLKLSCVASGFAFSTFAMSWIRQTPEKRLEWVAAISNGGGYTYYPDTLKGRFTISRDNAKNTLYLQMSSLRSEDTAVYYCARRYYDLYFDLWGQGTSLIVSS
VL: DILMTQTPLSLPVSLGDQASISCRSSQNIVHSNGNTYLEWYLQKPGQSPKLLIYKVSNRFSGVPDRFSGSGSGTDFTLKISRVEAEDLGVYYCFQDSHVPLTFGAGTRLELK
notes: Raised against PSMGFR
